In publication PMC5986797, “Laminin heparin-binding peptides bind to several growth factors and enhance diabetic wound healing” (Nature Communications, 2018):

T1: recombinant human syndecan-1 (human, UniProt P18827 23-254)
T1 construct: syndecan-1, human, recombinant; probably the extracellular domain; source: bought: SinoBiological
T1 sequence (looked up): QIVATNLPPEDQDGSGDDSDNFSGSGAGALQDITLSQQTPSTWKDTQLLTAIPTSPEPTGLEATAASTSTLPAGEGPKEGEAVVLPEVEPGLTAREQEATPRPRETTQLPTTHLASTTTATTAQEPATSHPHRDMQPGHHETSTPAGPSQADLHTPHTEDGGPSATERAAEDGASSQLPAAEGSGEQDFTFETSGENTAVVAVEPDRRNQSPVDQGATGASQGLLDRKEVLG

T2: recombinant human syndecan-4 (human, UniProt P31431 19-145)
T2 construct: syndecan-4, human, recombinant; probably the extracellular domain; source: bought: SinoBiological
T2 sequence (looked up): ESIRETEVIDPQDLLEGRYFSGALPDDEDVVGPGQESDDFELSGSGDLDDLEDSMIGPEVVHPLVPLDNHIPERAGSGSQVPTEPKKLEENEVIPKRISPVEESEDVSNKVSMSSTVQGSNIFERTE

T3: recombinant laminin LAMA3_(2928–3150) protein (human, UniProt Q16787 2928-3150)
T3 construct: laminin subunit alpha-3, human, LG domain Ser2928-Cys3150 (linker domain and LG4 domain); also called laminin alpha 3 LG domain recombinant protein; source: HEK-293F, transfected, purified from culture medium (HisTrap, size-exclusion chromatography)
T3 sequence (looked up): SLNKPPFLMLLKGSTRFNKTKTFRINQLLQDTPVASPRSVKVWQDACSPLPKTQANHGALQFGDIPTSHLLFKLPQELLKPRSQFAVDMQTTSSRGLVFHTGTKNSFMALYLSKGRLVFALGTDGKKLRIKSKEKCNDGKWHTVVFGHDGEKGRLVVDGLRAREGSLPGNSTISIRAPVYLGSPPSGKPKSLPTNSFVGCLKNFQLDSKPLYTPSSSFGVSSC

B1: laminin peptide LAMA5_(3300–3330) (peptide, UniProt O15230 3300-3330, looked up)
peptide: TPGLGPRGLQATARKASRRSRQPARHPACML
notes: laminin subunit alpha-5, human, residues 3300-3330, from the LG3-LG4 linker; source: synthetic peptide (Genscript)
B2: laminin peptide LAMA3_(3043–3067) (peptide, UniProt Q16787 3043-3067, looked up)
peptide: RLVFALGTDGKKLRIKSKEKCNDGK
notes: laminin subunit alpha-3, human, residues 3043-3067; also called laminin HBD peptide; source: synthetic peptide (Genscript)
B3: FGF-10 (ligand, UniProt O15520 38-208, looked up)
chain: QALGQDMVSPEATNSSSSSFSSPSSAGRHVRSYNHLQGDVRWRKLFSFTKYFLKIEKNGKVSGTKKENCPYSILEITSVEIGVVAVKAINSNYYLAMNKKGKLYGSKEFNNDCKLKERIEENGYNTYASFNWQHNGRQMYVALNGKGAPRRGQKTRRKNTSAHFLPMVVHS
notes: fibroblast growth factor 10, bought in its mature form; source: bought: PeproTech; produced in Escherichia coli
B4: FGF-18 (ligand, UniProt O76093 28-207, looked up)
chain: EENVDFRIHVENQTRARDDVSRKQLRLYQLYSRTSGKHIQVLGRRISARGEDGDKYAQLLVETDTFGSQVRIKGKETEFYLCMNRKGKLVGKPDGTSKECVFIEKVLENNYTALMSAKYSGWYVGFTKKGRPRKGPKTRENQQDVHFMKRYPKGQPELQKPFKYTTVTKRSRRIRPTHPA
notes: fibroblast growth factor 18, bought in its mature form; source: bought: PeproTech; produced in Escherichia coli
B5: BMP-3 (ligand, UniProt P12645 363-472, looked up)
chain: QWIEPRNCARRYLKVDFADIGWSEWIISPKSFDAYYCSGACQFPMPKSLKPSNHATIQSIVRAVGVVPGIPEPCCVPEKMSSLSILFFDENKNVVLKVYPNMTVESCACR
notes: bone morphogenetic protein 3, bought in its mature form; source: bought: PeproTech; produced in Escherichia coli
B6: NT-3 (ligand, UniProt P20783 139-257, looked up)
chain: YAEHKSHRGEYSVCDSESLWVTDKSSAIDIRGHQVTVLGEIKTGNSPVKQYFYETRCKEARPVKNGCRGIDDKHWNSQCKTSQTYVRALTSENNKLVGWRWIRIDTSCVCALSRKIGRT
notes: neurotrophin-3, bought in its mature form; also called neurotrophin NT-3; source: bought: PeproTech; produced in Escherichia coli
B7: BMP-2 (ligand, UniProt P12643 283-396, looked up)
chain: QAKHKQRKRLKSSCKRHPLYVDFSDVGWNDWIVAPPGYHAFYCHGECPFPLADHLNSTNHAIVQTLVNSVNSKIPKACCVPTELSAISMLYLDENEKVVLKNYQDMVVEGCGCR
notes: bone morphogenetic protein 2, bought in its mature form; source: bought: PeproTech; produced in Escherichia coli
B8: FGF-7 (ligand, UniProt P21781 32-194, looked up)
chain: CNDMTPEQMATNVNCSSPERHTRSYDYMEGGDIRVRRLFCRTQWYLRIDKRGKVKGTQEMKNNYNIMEIRTVAVGIVAIKGVESEFYLAMNKEGKLYAKKECNEDCNFKELILENHYNTYASAKWTHNGGEMFVALNQKGIPVRGKKTKKEQKTAHFLPMAIT
notes: fibroblast growth factor 7, bought in its mature form; source: bought: PeproTech; produced in Escherichia coli
B9: laminin peptide LAMA5_(3417–3436) (peptide, UniProt O15230 3417-3436, looked up)
peptide: RQRSRPGRWHKVSVRWEKNR
notes: laminin subunit alpha-5, human, residues 3417-3436; source: synthetic peptide (Genscript)
B10: laminin peptide LAMA3_(2932–2951) (peptide, UniProt Q16787 2932-2951, looked up)
peptide: PPFLMLLKGSTRFNKTKTFR
notes: laminin subunit alpha-3, human, residues 2932-2951, from the LG3-LG4 linker; source: synthetic peptide (Genscript)
B11: laminin peptide LAMA5_(3539–3550) (peptide, UniProt O15230 3539-3550, looked up)
peptide: TLPDVGLELEVR
notes: laminin subunit alpha-5, human, residues 3539-3550; source: synthetic peptide (Genscript)
B12: placental growth factor (PlGF)-2 (ligand, human, UniProt P49763-3 19-170, looked up)
chain: LPAVPPQQWALSAGNGSSEVEVVPFQEVWGRSYCRALERLVDVVSEYPSEVEHMFSPSCVSLLRCTGCCGDENLHCVPVETANVTMQLLKIRSGDRPSYVELTFSQHVRCECRPLREKMKPERRRPKGRGKRRREKQRPTDCHLCGDAVPRR
notes: placenta growth factor, form PlGF-2, human, bought in its mature form; source: bought: PeproTech; produced in Escherichia coli

Key:
Settings in all cases: both partners purified
[1] = molecular target: B12; assay: ELISA; plates coated with laminin peptide (10 µg/mL by the legend, 1 μg/mL by the methods); 1 μg/mL GF added; bound GF detected with an antibody for each GF; BSA-coated wells as control
[2] = molecular target: T1, recombinant human syndecan-1; assay: ELISA; plates coated with laminin peptide (10 µg/mL by the legend, 1 μg/mL by the methods); 1 μg/mL His-tagged syndecan added; detected with anti-histidine tag antibody; BSA-coated wells as control
[3] = molecular target: T2, recombinant human syndecan-4; assay: as above
[4] = molecular target: T4, recombinant human syndecan-2 (human, UniProt P34741 19-144); assay: as above
T4 construct: syndecan-2, human, recombinant; probably the extracellular domain; source: bought: SinoBiological

[5] = molecular target: T5, platelet-derived growth factor PDGF-BB (human, UniProt P01127 82-190); assay: ELISA; plates coated with laminin peptide (10 µg/mL by the legend, 1 μg/mL by the methods); 1 μg/mL GF added; bound GF detected with an antibody for each GF; BSA-coated wells as control
T5 construct: platelet-derived growth factor subunit B, human, bought in its mature form; a homodimer by its name; source: bought: PeproTech; produced in Escherichia coli

FGF-2 = molecular target: T6, FGF-2 (human, UniProt P09038 143-288); assay: as above
T6 construct: fibroblast growth factor 2, human, bought in its mature form; source: bought: PeproTech; produced in Escherichia coli

[6] = molecular target: T7, recombinant human laminin-111 (human, UniProt P25391 18-3075; P07942 22-1786; P11047 34-1609); assay: ELISA; plates coated with 50 nM GF or chemokine in PBS; 10 nM laminin isoform in PBS added; bound laminin detected with anti-LAMC1 or anti-LAMA3 polyclonal antibody; A450 signals greater than 0.1 taken as binding; BSA-coated wells as control
T7 construct: laminin subunit alpha-1, human; chain told by the isoform's name; laminin subunit beta-1, human; laminin subunit gamma-1, human; source: bought: BioLamina (recombinant human, >95% purity); copies: + +

[7] = molecular target: T8, recombinant human laminin-211 (human, UniProt P24043 23-3122; P07942 22-1786; P11047 34-1609); assay: as above
T8 construct: laminin subunit alpha-2, human; chain told by the isoform's name; laminin subunit beta-1, human; laminin subunit gamma-1, human; source: bought: BioLamina (recombinant human, >95% purity); copies: + +

[8] = molecular target: T9, recombinant human laminin-521 (human, UniProt O15230 36-3695; P55268 33-1798; P11047 34-1609); assay: as above
T9 construct: laminin subunit alpha-5, human; chain told by the isoform's name; laminin subunit beta-2, human; laminin subunit gamma-1, human; also called laminin isoform-521; source: bought: BioLamina (recombinant human, >95% purity); copies: + +

[9] = molecular target: T10, recombinant human laminin-511 (human, UniProt O15230 36-3695; P07942 22-1786; P11047 34-1609); assay: as above
T10 construct: laminin subunit alpha-5, human; chain told by the isoform's name; laminin subunit beta-1, human; laminin subunit gamma-1, human; source: bought: BioLamina (recombinant human, >95% purity); copies: + +

[10] = molecular target: T9, recombinant human laminin-521; assay: SPR; laminin-521 immobilised by amine coupling on a C1 chip (~2000 RU); GF flown at 20 μL/min in 0.01 M HEPES pH 7.4, 0.15 M NaCl, 0.005% surfactant P20; Langmuir binding kinetics
[11] = molecular target: T3, recombinant laminin LAMA3_(2928–3150) …; assay: ELISA; plates coated with 1 μg/mL recombinant laminin LG domain; 1 μg/mL GF added; bound GF detected with an antibody for each GF; BSA-coated wells as control
[12] = molecular target: T7, recombinant human laminin-111; assay: ELISA; plates coated with 10 μg/mL laminin isoform; 1 μg/mL GF for 60 min at RT in the absence or presence of 10 μM heparin; bound GF detected with an antibody for each GF
[13] = molecular target: T8, recombinant human laminin-211; assay: as above

T5 sequence (P01127 82-190): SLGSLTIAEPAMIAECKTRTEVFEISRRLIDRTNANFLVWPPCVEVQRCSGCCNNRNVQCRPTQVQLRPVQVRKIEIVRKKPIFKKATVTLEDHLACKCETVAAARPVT
T4 sequence (P34741 19-144): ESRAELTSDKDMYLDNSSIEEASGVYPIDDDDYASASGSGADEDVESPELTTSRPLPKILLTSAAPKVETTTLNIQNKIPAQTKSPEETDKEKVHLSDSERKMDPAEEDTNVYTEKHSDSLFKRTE
T6 sequence (P09038 143-288): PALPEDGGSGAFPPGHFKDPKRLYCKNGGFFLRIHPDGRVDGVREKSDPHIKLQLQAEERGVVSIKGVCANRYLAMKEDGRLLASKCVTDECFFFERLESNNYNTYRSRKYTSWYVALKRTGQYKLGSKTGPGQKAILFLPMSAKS

Binder | binding result [1] | binding result (FGF-2) | binding result [6] | binding result [7] | binding result [8] | binding result [9] | also measured
B1 | binds | – | – | – | – | – | binding result [2]: binds; binding result [3]: binds; binding result [4]: binds
B2 | binds | binds | – | – | – | – | binding result [5]: binds; binding result [2]: binds; binding result [3]: binds; binding result [4]: binds
B3 | – | – | binds | binds | binds | binds | –
B4 | – | – | binds | binds | binds | binds | –
B5 | – | – | binds | binds | binds | binds | –
B6 | – | – | binds | binds | binds | binds | –
B7 | – | – | binds | binds | binds | binds | –
B8 | – | – | binds | binds | binds | binds | –
B9 | binds | binds | – | – | – | – | binding result [5]: binds; binding result [2]: binds; binding result [3]: binds; binding result [4]: binds
B10 | – | binds | – | – | – | – | –
B11 | binds | binds | – | – | – | – | binding result [5]: binds
B12 | – | – | – | – | – | – | Kd [10]: 12.9 nM; binding result [11]: binds; binding result [12]: binds; binding result [13]: binds
